Measured values reported in US20050144661A1 (WASHINGTON UNIVERSITY, published 2005).

T1: Unfused CLuc (Photinus pyralis)
T1 chain: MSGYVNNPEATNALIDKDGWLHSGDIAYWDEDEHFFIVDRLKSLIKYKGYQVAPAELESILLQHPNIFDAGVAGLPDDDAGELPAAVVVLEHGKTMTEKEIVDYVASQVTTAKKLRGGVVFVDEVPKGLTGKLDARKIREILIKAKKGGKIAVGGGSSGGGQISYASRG

B1: FRB-NLuc(2-416) (other, human;Photinus pyralis, UniProt P42345 2024-2113, looked up)
chain: HEMWHEGLEEASRLYFGERNVKGMFEVLEPLHAMMERGPQTLKETSFNQAYGRDLMEAQEWCRKYMKSGNVKDLTQAWDLYYHVFRRISKEDAKNIKKGPAPFYPLEDGTAGEQLHKAMKRYALVPGTIAFTDAHIEVNITYAEYFEMSVRLAEAMKRYGLNTNHRIVVCSENSLQFFMPVLGALFIGVAVAPANDIYNERELLNSMNISQPTVVFVSKKGLQKILNVQKKLPIIQKIIIMDSKTDYQGFQSMYTFVTSHLPPGFNEYDFVPESFDRDKTIALIMNSSGSTGLPKGVALPHRTACVRFSHARDPIFGNQIIPDTAILSVVPFHHGFGMFTTLGYLICGFRVVLMYRFEEELFLRSLQDYKIQSALLVPTLFSFFAKSTLIDKYDLSNLHEIASGGAPLSKEVGEAVAKRFHLPGIRQGYGLTETTSAILITPEGDDKPGAVGKVVPFFEAKVVDLDTGKTLGVNQRGELCVRGPMIMSGYVNNPEATNALIDKDG
notes: range 2024-2113;range 2-416; The printed ORF starts with an added Met (MEMWHEG...); not shown: flexible Gly/Ser linker with multiple cloning site
B2: Cdc25C-NLuc (other, human;Photinus pyralis, UniProt P30307 1-473, looked up)
chain: MSTELFSSTREEGSSGSGPSFRSNQRKMLNLLLERDTSFTVCPDVPRTPVGKFLGDSANLSILSGGTPKRCLDLSNLSSGEITATQLTTSADLDETGHLDSSGLQEVHLAGMNHDQHLMKCSPAQLLCSTPNGLDRGHRKRDAMCSSSANKENDNGNLVDSEMKYLGSPITTVPKLDKNPNLGEDQAEEISDELMEFSLKDQEAKVSRSGLYRSPSMPENLNRPRLKQVEKFKDNTIPDKVKKKYFSGQGKLRKGLCLKKTVSLCDITITQMLEEDSNQGHLIGDFSKVCALPTVSGKHQDLKYVNPETVAALLSGKFQGLIEKFYVIDCRYPYEYLGGHIQGALNLYSQEELFNFFLKKPIVPLDTQKRIIIVFHCEFSSERGPRMCRCLREEDRSLNQYPALYYPELYILKGGYRDFFPEYMELCEPQSYCPMHHQDHKTELLRCRSQSKVQEGERQLREQIALLVKDMSPEDAKNIKKGPAPFYPLEDGTAGEQLHKAMKRYALVPGTIAFTDAHIEVNITYAEYFEMSVRLAEAMKRYGLNTNHRIVVCSENSLQFFMPVLGALFIGVAVAPANDIYNERELLNSMNISQPTVVFVSKKGLQKILNVQKKLPIIQKIIIMDSKTDYQGFQSMYTFVTSHLPPGFNEYDFVPESFDRDKTIALIMNSSGSTGLPKGVALPHRTACVRFSHARDPIFGNQIIPDTAILSVVPFHHGFGMFTTLGYLICGFRVVLMYRFEEELFLRSLQDYKIQSALLVPTLFSFFAKSTLIDKYDLSNLHEIASGGAPLSKEVGEAVAKRFHLPGIRQGYGLTETTSAILITPEGDDKPGAVGKVVPFFEAKVVDLDTGKTLGVNQRGELCVRGPMIMSGYVNNPEATNALIDKDG
modifications: phosphorylated on S216 in the cells (Western blot, reduced by UCN-01)
notes: FRB of the NLuc fusion vector replaced by the Cdc25C open reading frame; not shown: Gly/Ser linker region reconstituted up to the BsiWI site
B3: CLuc-14-3-3ε (other, UniProt P08659 398-550, looked up)
chain: MSGYVNNPEATNALIDKDGWLHSGDIAYWDEDEHFFIVDRLKSLIKYKGYQVAPAELESILLQHPNIFDAGVAGLPDDDAGELPAAVVVLEHGKTMTEKEIVDYVASQVTTAKKLRGGVVFVDEVPKGLTGKLDARKIREILIKAKKGGKSKLMDDREDLVYQAKLAEQAERYDEMVESMKKVAGMDVELTVEERNLLSVAYKNVIGARRASWRIISSIEQKEENKGGEDKLKMIREYRQMVETELKLICCDILDVLDKHLIPAANTGESKVFYYKMKGDYHRYLAEFATGNDRKEAAENSLVAYKAASDIAMTELPPTHPIRLGLALNFSVFYYEILNSPDRACRLAKAAFDDAIAELDTLSEESYKDSTLIMQLLRDNLTLWTSDMQGDGEEQNKEALQDVEDENQ
notes: FKBP of the CLuc fusion vector replaced by 14-3-3ε; not shown: Gly/Ser linker with cloning sites
B4: Unfused NLuc (2-416) (other, Photinus pyralis, UniProt P08659 2-416, looked up)
chain: EDAKNIKKGPAPFYPLEDGTAGEQLHKAMKRYALVPGTIAFTDAHIEVNITYAEYFEMSVRLAEAMKRYGLNTNHRIVVCSENSLQFFMPVLGALFIGVAVAPANDIYNERELLNSMNISQPTVVFVSKKGLQKILNVQKKLPIIQKIIIMDSKTDYQGFQSMYTFVTSHLPPGFNEYDFVPESFDRDKTIALIMNSSGSTGLPKGVALPHRTACVRFSHARDPIFGNQIIPDTAILSVVPFHHGFGMFTTLGYLICGFRVVLMYRFEEELFLRSLQDYKIQSALLVPTLFSFFAKSTLIDKYDLSNLHEIASGGAPLSKEVGEAVAKRFHLPGIRQGYGLTETTSAILITPEGDDKPGAVGKVVPFFEAKVVDLDTGKTLGVNQRGELCVRGPMIMSGYVNNPEATNALIDKDG
B5: S2035I FRB-NLuc (other)
chain: MEMWHEGLEEAIRLYFGERNVKGMFEVLEPLHAMMERGPQTLKETSFNQAYGRDLMEAQEWCRKYMKSGNVKDLTQAWDLYYHVFRRISKQQISYASRGGGSSGGGEDAKNIKKGPAPFYPLEDGTAGEQLHKAMKRYALVPGTIAFTDAHIEVDITYAEYFEMSVRLAEAMKRYGLNTNHRIVVCSENSLQFFMPVLGALFIGVAVAPANDIYNERELLNSMGISQPTVVFVSKKGLQKILNVQKKLPIIQKIIIMDSKTDYQGFQSMYTFVTSHLPPGFNEYDFVPESFDRDKTIALIMNSSGSTGLPKGVALPHRTACVRFSHARDPIFGNQIIPDTAILSVVPFHHGFGMFTTLGYLICGFRVVLMYRFEEELFLRSLQDYKIQSALLVPTLFSFFAKSTLIDKYDLSNLHEIASGGAPLSKEVGEAVAKRFHLPGIRQGYGLTETTSAILITPEGDDKPGAVGKVVPFFEAKVVDLDTGKTLGVNQRGELCVRGPMIMSGYVNNPEATNALIDKDG
notes: Point mutant of FRB-NLuc made by site directed mutagenesis; also called mutant FRB(S2035I); FRB(S20351)
B6: CLuc-STAT1 (other, Photinus pyralis;human, UniProt P08659 398-550, looked up)
chain: MSGYVNNPEATNALIDKDGWLHSGDIAYWDEDEHFFIVDRLKSLIKYKGYQVAPAELESILLQHPNIFDAGVAGLPDDDAGELPAAVVVLEHGKTMTEKEIVDYVASQVTTAKKLRGGVVFVDEVPKGLTGKLDARKIREILIKAKKGGKSKLMSQWYELQQLDSKFLEQVHQLYDDSFPMEIRQYLAQWLEKQDWEHAANDVSFATIRFHDLLSQLDDQYSRFSLENNFLLQHNIRKSKRNLQDNFQEDPIQMSMIIYSCLKEERKILENAQRFNQAQSGNIQSTVMLDKQKELDSKVRNVKDKVMCIEHEIKSLEDLQDEYDFKCKTLQNREHETNGVAKSDQKQEQLLLKKMYLMLDNKRKEVVHKIIELLNVTELTQNALINDELVEWKRRQQSACIGGPPNACLDQLQNWFTIVAESLQQVRQQLKKLEELEQKYTYEHDPITKNKQVLWDRTFSLFQQLIQSSFVVERQPCMPTHPQRPLVLKTGVQFTVKLRLLVKLQELNYNLKVKVLFDKDVNERNTVKGFRKFNILGTHTKVMNMEESTNGSLAAEFRHLQLKEQKNAGTRTNEGPLIVTEELHSLSFETQLCQPGLVIDLETTSLPVVVISNVSQLPSGWASILWYNMLVAEPRNLSFFLTPPCARWAQLSEVLSWQFSSVTKRGLNVDQLNMLGEKLLGPNASPDGLIPWTRFCKENINDKNFPFWLWIESILELIKKHLLPLWNDGCIMGFISKERERALLKDQQPGTFLLRFSESSREGAITFTWVERSQNGGEPDFHAVEPYTKKELSAVTFPDIIRNYKVMAAENIPENPLKYLYPNIDKDHAFGKYYSRPKEAPEPMELDGPKGTGYIKTELISVSEVHPSRLQTTDNLLPMSPEEFDEVSRIVGSVEFDSMMNTV
modifications: unphosphorylated on Y701 in untreated cells (Western blot); phosphorylated after IFN-γ
notes: not shown: Gly/Ser linker with cloning sites

What was measured:
CLuc(398-550)-FKBP [1] = target: T2, CLuc(398-550)-FKBP (Photinus pyralis; human, UniProt P08659 398-550 = luciferase; P62942 1-108); assay: cell-based or functional assay
Unfused CLuc = target: T1, Unfused CLuc; assay: cell-based or functional assay
CLuc-STAT1 = target: B6; assay: LCI, live HEK-293 cells
STAT1-NLuc = target: T3, STAT1-NLuc (human; Photinus pyralis, UniProt P42224 1-750; P08659 2-416 = luciferase, unphosphorylated on Y701 in untreated cells (Western blot); phosphorylated after IFN-γ); assay: LCI, live HEK-293 cells
T3 construct: not shown: Gly/Ser linker region reconstituted up to the BsiWI site

CLuc(398-550)-FKBP [2] = target: T2, CLuc(398-550)-FKBP; assay: LCI in mice with i.p. implants of transfected HEK-293 cells, with and without rapamycin

Q: What does the source list for B1?
A: apparent Kd of rapamycin for induced FRB/FKBP association, bioluminescence readout in intact HEK-293 cells (CLuc(398-550)-FKBP [1]): 1.5 nM; apparent Ki of FK506 for inhibition of rapamycin-induced luciferase activity in situ (rapamycin 80 nM) (CLuc(398-550)-FKBP [1]): 4.2 nM; bioluminescence induction by rapamycin (80 nM) in cell lysates over untreated lysates, within 15 minutes (CLuc(398-550)-FKBP [1]): 18 fold; drug-specific induction of bioluminescence over background (CLuc(398-550)-FKBP [1]): 1200 fold; maximal mean bioluminescence signal over untransfected cells, with rapamycin, live HEK-293 cells (CLuc(398-550)-FKBP [1]): 72 fold; maximum bioluminescence in rapamycin-treated mice over untreated mice (i.p. cell implants) (CLuc(398-550)-FKBP [1]): 23 fold; mean maximal increase in bioluminescence with rapamycin (80 nM) over untreated transfected cells, within 4-6 hrs (CLuc(398-550)-FKBP [1]): 6 fold; bioluminescence signal against FRB-NLuc/CLuc-FKBP without rapamycin (Unfused CLuc): 3 fold lower; binding result (CLuc-STAT1): no binding

Q: Does B2 bind (CLuc-STAT1)?
A: no binding

Q: Does B3 bind (STAT1-NLuc)?
A: no binding

Q: What does the source list for B4?
A: background bioluminescence against the FRB-NLuc/CLuc-FKBP pair in the absence of rapamycin (Unfused CLuc): 12 fold less; background bioluminescence against the FRB-NLuc/CLuc-FKBP pair in the presence of rapamycin (Unfused CLuc): 100 fold less

Q: Does B5 bind (CLuc(398-550)-FKBP [2])?
A: no binding

Q: Does B6 bind (STAT1-NLuc)?
A: binds
